Assay results taken from the supplement of paper PMC7877785.
± gives the uncertainty stated by the source.

Assay: self-splicing fitness, log relative to wild type (ln ratio); higher = more splicing; Tetrahymena group I intron in knt gene, E. coli kanamycin selection, DiMSum; sequences stand for … in CUCUCU…GGAGGGAAAAGUUAUCAGGCAUGCACCUGGUAGCUAGUCUUUAAACCAAUAGAUUGCAUCGGUUUAAAAGGCAAGACCGUCAAAUUGCGGGAAAGGGGUCAACAGCCGUUCAGUACCAAGUCUCAGGGGAAACUUUGAGAUGGCCUUGCAAAGGGUAUGGUAAUAAGCUGACGGACAUGGUCCUAACCACGCAGCCAAGUCCUAAGUCAACAGAUCUUCUGUUGAUAUGGAUGCAGUUCACAGACUAAAUGUCGGUCGGGGAAGAUGUAUUCUUCUCAUAAGAUAUAGUCGGACCUCUCCUUAAUGGGAGCUAGCGGAUGAAGUGAUGCAACACUGGAGCCGCUGGGAACUAAUUUGUAUGCGAAAGUAUAUUGAUUAGUUUUGGAGUACUCGUGGUCG
Outline: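 Library with all eight P1ex-region intron nucleotides randomised, intron inside the knt kanamycin-resistance gene on pET-22b(+), in E. coli BL21(DE3). Cells grew overnight at 37°C or 30°C on LB agar with or without 25 μg/mL kanamycin (plus 100 μg/mL carbenicillin, 50 μM IPTG, 0.2% rhamnose), in six replicate transformations. Pooled colonies were amplicon-sequenced on Illumina HiSeq 2500. DiMSum fitness is the error-weighted combination of wild-type-normalised replicate fold changes, kanamycin versus none.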

Sequence	self-splicing fitness (ln) (30 °C)	self-splicing fitness (ln) (37 °C)
GUUAAGCAAUAUUACGAGGG	-3.99 ± 0.21	-3.08 ± 0.25
GUUAAGCAAUAUUACGAGUA	-2.5 ± 0.12	-1.32 ± 0.095
GUUAAGCAAUAUUACGAUCA	-0.949 ± 0.23	-0.245 ± 0.2
GUUAAGCAAUAUUACGAUCU	-0.419 ± 0.087	-0.373 ± 0.11
GUUAAGCAAUAUUACGCACU	-0.8 ± 0.22	-1.17 ± 0.23
GUUAAGCAAUAUUACGCAGA	-2.33 ± 0.14	-2.85 ± 0.14
GUUAAGCAAUAUUACGCCUU	-0.286 ± 0.071	0.261 ± 0.096
GUUAAGCAAUAUUACGCGAC	-3.02 ± 0.21	-2.15 ± 0.22
GUUAAGCAAUAUUACGCGAU	-3.1 ± 0.21	-2.65 ± 0.29
GUUAAGCAAUAUUACGCGUA	-1.2 ± 0.17	-0.453 ± 0.25
GUUAAGCAAUAUUACGCUUC	–	-1.01 ± 0.49
GUUAAGCAAUAUUACGGAAA	-1.77 ± 0.26	-1.06 ± 0.27
GUUAAGCAAUAUUACGGACA	-0.907 ± 0.21	-1.18 ± 0.21
GUUAAGCAAUAUUACGGAGC	-3.58 ± 0.33	-2.55 ± 0.27
GUUAAGCAAUAUUACGGAUG	-3.1 ± 0.28	-0.786 ± 0.16
GUUAAGCAAUAUUACGGAUU	-2.21 ± 0.12	-0.713 ± 0.14
GUUAAGCAAUAUUACGGCUG	-0.765 ± 0.11	-0.135 ± 0.13
GUUAAGCAAUAUUACGGGAA	-1.87 ± 0.34	-1.86 ± 0.29
GUUAAGCAAUAUUACGGUUC	-1.6 ± 0.081	-0.156 ± 0.12
GUUAAGCAAUAUUACGGUUG	-3.12 ± 0.28	-1.22 ± 0.24
GUUAAGCAAUAUUACGUACC	-0.386 ± 0.29	–
GUUAAGCAAUAUUACGUAGA	-3.06 ± 0.16	-0.537 ± 0.12
GUUAAGCAAUAUUACGUUUA	-2.74 ± 0.15	-1.61 ± 0.11
GUUCAGCAAUAUUACGAUGG	-3.81 ± 0.29	-2.31 ± 0.25
GUUCAGCAAUAUUACGAUGU	-0.419 ± 0.075	0.31 ± 0.11

Sequence	self-splicing fitness (ln) (30 °C)	self-splicing fitness (ln) (37 °C)
GUUCAGCAAUAUUACGCCAU	-2.66 ± 0.21	-1.99 ± 0.14
GUUCAGCAAUAUUACGCCGA	-2.43 ± 0.31	-1.34 ± 0.29
GUUCAGCAAUAUUACGCCGG	-2.55 ± 0.21	-0.806 ± 0.28
GUUCAGCAAUAUUACGCGCC	-1.96 ± 0.31	-1.43 ± 0.34
GUUCAGCAAUAUUACGCGUU	-0.588 ± 0.062	0.431 ± 0.067
GUUCAGCAAUAUUACGCUAU	-1.32 ± 0.081	-0.451 ± 0.092
GUUCAGCAAUAUUACGCUGA	-2.16 ± 0.24	-2.43 ± 0.31
GUUCAGCAAUAUUACGGCCA	-0.626 ± 0.12	-0.426 ± 0.15
GUUCAGCAAUAUUACGGCGA	-1.16 ± 0.19	0.354 ± 0.18
GUUCAGCAAUAUUACGGUAA	-1.21 ± 0.07	-0.563 ± 0.07
GUUCAGCAAUAUUACGUACA	-1.13 ± 0.11	-0.94 ± 0.11
GUUCAGCAAUAUUACGUGCU	–	-2.98 ± 0.28
GUUCAGCAAUAUUACGUGGA	-3.5 ± 0.41	-1.42 ± 0.2
GUUCAGCAAUAUUACGUGGG	-2.07 ± 0.13	-1.92 ± 0.15
GUUCAGCAAUAUUACGUUCC	-2.79 ± 0.29	-1.78 ± 0.41
GUUCAGCAAUAUUACGUUUG	-2.75 ± 0.15	-1.22 ± 0.14
GUUGAGCAAUAUUACGACCU	-2.63 ± 0.16	-1.56 ± 0.17
GUUGAGCAAUAUUACGACGA	-3.3 ± 0.32	-2.2 ± 0.27
GUUGAGCAAUAUUACGACGC	-1.95 ± 0.22	1.05 ± 0.26
GUUGAGCAAUAUUACGACUG	-2.97 ± 0.32	0.138 ± 0.22
GUUGAGCAAUAUUACGCACC	-2.94 ± 0.16	-1.67 ± 0.14
GUUGAGCAAUAUUACGGCGA	-2.81 ± 0.23	-2.44 ± 0.2
GUUGAGCAAUAUUACGGGCA	-3.29 ± 0.23	-0.813 ± 0.16
GUUGAGCAAUAUUACGGGUG	-3.62 ± 0.38	-2.85 ± 0.47
GUUGAGCAAUAUUACGGUUG	-3.56 ± 0.35	-1.38 ± 0.38

Sequence	self-splicing fitness (ln) (30 °C)	self-splicing fitness (ln) (37 °C)
GUUGAGCAAUAUUACGUAAG	-2.08 ± 0.18	-1.17 ± 0.19
GUUGAGCAAUAUUACGUCGU	-3.25 ± 0.39	–
GUUGAGCAAUAUUACGUGAA	–	-1.76 ± 0.22
GUUGAGCAAUAUUACGUGCC	-3.02 ± 0.45	–
GUUGAGCAAUAUUACGUGUU	-3.15 ± 0.25	-2.29 ± 0.3
GUUGAGCAAUAUUACGUUAC	-2.2 ± 0.13	-2.21 ± 0.24
GUUUAGCAAUAUUACGAAUC	–	-0.202 ± 0.45
GUUUAGCAAUAUUACGACUA	-0.518 ± 0.18	0.0789 ± 0.15
GUUUAGCAAUAUUACGCCCA	-1.48 ± 0.19	-0.953 ± 0.33
GUUUAGCAAUAUUACGCCGG	-2.37 ± 0.45	–
GUUUAGCAAUAUUACGCCUC	0.228 ± 0.22	-0.7 ± 0.23
GUUUAGCAAUAUUACGCCUG	-2.62 ± 0.25	-1.39 ± 0.26
GUUUAGCAAUAUUACGGAAA	-2.38 ± 0.37	-2.07 ± 0.28
GUUUAGCAAUAUUACGGAUG	-3.5 ± 0.3	-1.57 ± 0.22
GUUUAGCAAUAUUACGGCAU	0.0778 ± 0.14	-0.182 ± 0.14
GUUUAGCAAUAUUACGGCCA	-1.35 ± 0.14	-0.725 ± 0.15
GUUUAGCAAUAUUACGGCUA	-1.45 ± 0.33	-1.68 ± 0.31
GUUUAGCAAUAUUACGGGAC	–	-1.98 ± 0.39
GUUUAGCAAUAUUACGGGUC	-3.6 ± 0.47	-1.73 ± 0.2
GUUUAGCAAUAUUACGGUAC	-1.22 ± 0.12	-2.01 ± 0.15
GUUUAGCAAUAUUACGUCUG	-2.05 ± 0.18	-1.84 ± 0.3
GUUUAGCAAUAUUACGUGAU	-0.892 ± 0.17	-0.419 ± 0.12
GUUUAGCAAUAUUACGUUAC	-4.44 ± 0.28	-2.33 ± 0.18
GUUUAGCAAUAUUACGUUAU	-2.88 ± 0.23	-0.357 ± 0.16
UAAAAGCAAUAUUACGAAGU	-2.95 ± 0.29	-2.23 ± 0.21

Sequence	self-splicing fitness (ln) (30 °C)	self-splicing fitness (ln) (37 °C)
UAAAAGCAAUAUUACGAGUG	-0.615 ± 0.057	0.0674 ± 0.084
UAAAAGCAAUAUUACGCAUA	-1.44 ± 0.088	-0.782 ± 0.1
UAAAAGCAAUAUUACGCCAG	-1.34 ± 0.12	-0.458 ± 0.17
UAAAAGCAAUAUUACGCCCU	-0.622 ± 0.095	0.457 ± 0.15
UAAAAGCAAUAUUACGCCGG	-0.134 ± 0.11	0.0922 ± 0.14
UAAAAGCAAUAUUACGCUUA	-1.53 ± 0.11	-1.03 ± 0.12
UAAAAGCAAUAUUACGGAGA	-2.31 ± 0.27	-1.83 ± 0.27
UAAAAGCAAUAUUACGGAGC	-4.1 ± 0.25	-3.36 ± 0.28
UAAAAGCAAUAUUACGGCAU	-0.376 ± 0.091	-0.235 ± 0.12
UAAAAGCAAUAUUACGGGAA	-2.63 ± 0.2	-1.18 ± 0.12
UAAAAGCAAUAUUACGGUGU	-3.4 ± 0.13	-2.83 ± 0.15
UAAAAGCAAUAUUACGUACC	-2.18 ± 0.25	-0.361 ± 0.21
UAAAAGCAAUAUUACGUAUU	-2.24 ± 0.14	-1.88 ± 0.19
UAAAAGCAAUAUUACGUCUA	-0.487 ± 0.068	0.337 ± 0.097
UAAAAGCAAUAUUACGUCUG	-0.0205 ± 0.058	0.201 ± 0.075
UAAAAGCAAUAUUACGUGCG	-0.348 ± 0.07	-0.119 ± 0.09
UAAAAGCAAUAUUACGUGGA	-2.94 ± 0.13	-1.52 ± 0.1
UAAAAGCAAUAUUACGUGGG	-3.67 ± 0.23	-1.44 ± 0.13
UAAAAGCAAUAUUACGUUAC	-3.71 ± 0.22	-2.78 ± 0.21
UAACAGCAAUAUUACGAAAU	-3.46 ± 0.14	-2.52 ± 0.18
UAACAGCAAUAUUACGACGA	0.245 ± 0.069	0.319 ± 0.083
UAACAGCAAUAUUACGAGAA	-2.22 ± 0.22	-2.07 ± 0.23
UAACAGCAAUAUUACGAGAG	-3.21 ± 0.18	-2.46 ± 0.13
